{"source": "the RNAGym collection of RNA variant scans (doi:10.1073/pnas.2313332121)", "parents": {"B1": {"name": "TPR 5TU (parent)", "chain": "GGAUCUUCUCGAUCUAACAAAAAAGACAAAUCUGCCACAAAGCUUGAGAGCAUCUUCGGAUGCAGAGGCGGCAGCCUUCGGUGGCGCGAUAGCGCCAACGUUCUCAACUAUGACACGCAAAACGCGUGCUCCGUUGAAUGGAGUUUAUCAUG"}}, "note": "This sample holds only a part of the variants without activity.", "data": [{"variants_of": "B1", "assay": "polymerase ribozyme fitness, log enrichment relative to wild type (log ratio); higher = more active; in vitro selection for triplet polymerase activity", "how_it_was_run": "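Each subunit of a heterodimeric triplet polymerase ribozyme was mutagenized into a library by PCR, transcribed, and subjected to one round of in vitro selection, run in triplicate. Libraries were annealed with a biotinylated primer, the partner subunit and triplets, incubated frozen at −7 °C, and extended constructs were gel-excised, captured on streptavidin beads and recovered by RT-PCR. Input and output libraries were sequenced on Illumina, keeping genotypes with ≥10 input reads and ≥1 read per output. Fitness is log base 2 of genotype enrichment divided by wild-type enrichment, from inverse-variance-weighted replicate averages.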", "values": [{"variant": "GGAUCUUCUCGAUCUAACAAUAAAGACAAAUCUGCCACAAAGCUUGAGAGCAUCUUGGGAUGCAGAGGCGGCAGCCUUCGGUGGCGCGAUAGAGCCAACGUUCUCAACUAUGACACGCAAAACGCGUGCUCCGUUGAAUGGAGUUUAUCAUG", "polymerase ribozyme fitness (log ratio)": -2.34}, {"variant": "GGAUCUUCUCGAUCUAACAAUAAAGACAAAUCUGCCACAACGCUUGAGAGCAUCUUCGGAUGCAAAGGCGGCAGCCUUCGGUGGAGCGAUAGCGCCAACGUUCUCAACUAUGACACGCAAAACGCGUGCUCCGUUGAAUGGAGUUUAUCAUG", "polymerase ribozyme fitness (log ratio)": "≤ -4.2"}, {"variant": "GGAUCUUCUCGAUCUAACAAUAAAGACAAAUCUGCCACAAAGCUUGAGAGCAUCUUCGGAUGCAGAGGCGGCAGCCUUCGGUGGCGAGAUAGCGCCAACGUUCUCAACUAUGACACGCAAAACGCGUGCUCCGUUGAAUGGAGUUUAUCAUG", "polymerase ribozyme fitness (log ratio)": -3.82}, {"variant": "GGAUCUUCUCGAUCUAACAAUAAAGACAAAUCUGCCACGAAGCUUGAGAGCCUCUUCAGAUGCAGAGGCGGCAGCCUUCAGUUGAGCGAUAGAGCCAACGUUCUCAACUAUGACACGCAAAACGCGUGCUCCGUUGAAUGGAGUUUAUCAUG", "polymerase ribozyme fitness (log ratio)": "≤ -4.2"}, {"variant": "GGAUCUUCUCGAUCUAACAAUAAAGACAGAUAUGCCACAAAGCUUGAGAGCAUCUUCGGAUGCUGAGUCGGCAGCCUUCGGUGUCGCGAUAGCGCCAACGUUCUCAACUAUGACACGCAAUACGCGUGCUCCGUUGAAUGGAGUUUAUCAUG", "polymerase ribozyme fitness (log ratio)": "≤ -4.2"}, {"variant": "GGAUCUUCUCGAUCUAACAAUAAAGACAAAUCUGCCACAAAGCUUGAGAGCAUCUUCGGAUGCAGAGGCGGCAGCCUUCGGUGGCGCGAUAGCGCCAACGUUCUCAAUUAUGACACGCAAAACGCGUGCUCCGUUGAAUGGAGUUUAUCAUG", "polymerase ribozyme fitness (log ratio)": -3.78}, {"variant": "GGAUCUUCUCGAUCUAACAAUAAAGACAAAUCUGCCACAAAGCUUGAGAGCAUCUUAGGAUGCAGAGGCGGCAGCCUUCGGUGGCGCGAUAGCGCCAACGUUCUCACCUAUGACACGCAAAACGCGUGCUCCGUUGAACGGAGUUUCUCAUG", "polymerase ribozyme fitness (log ratio)": "≤ -4.2"}, {"variant": "GGAUCUUCUCGAUCUAACAAUAAAGACAAAUCUGCCACAAAGCUUGAGAGCAUCUUAGGAUGCAGAGGCGGCAGCCUUCGGUGGCGCGAUAGGGCCAACGUUCUCAACUAUGACACGCAAAACGCGUGCUCCGUUGAAUGGCGUUUAUCAUG", "polymerase ribozyme fitness (log ratio)": -3.67}, {"variant": "GGAUCUUCUCGAUCUAACAAUAAAGACCAAUCUUCCACGAAGCUUGAGAGCAUCUUCGGAUGCAGAGGCGGCAGCCUUCGGUGGCGCGAUAGCGCCAACGUUCUCAACUAUGACACGCAAAACGCGUGCUCCGUUGAAUGGAGUUUAUCAUG", "polymerase ribozyme fitness (log ratio)": "≤ -4.2"}, {"variant": "GGAUCUUCUCGAUCUAACAAUAAAGACACUUAUGCCACAAAGCUUGAGAGCAUCUUCGGAUGCAGAGGCGGCAGCCUUCGGUGGCACGAUAGCGCCAAUGUUCUCAACUAUGACACGUAAAACGCGUGCUCCGAUGAAUGGAGUCUAUGAUG", "polymerase ribozyme fitness (log ratio)": "≤ -4.2"}, {"variant": "GGAUCUUCUCGAUCUAACAAUAUAGACAAAUCUGCCACAAAGCUUGAGAGCAUCUUCGGAUGCAGAGGCGGCAGCCUUCGGUGGCGCGAUAGCGCCAACGUUCUCAACUAUGACACGCAAAACGCGUGCUCCGUUGAAUGGAGUUUAUCAUG", "polymerase ribozyme fitness (log ratio)": "≤ -4.2"}, {"variant": "GGAUCUUCUCGAUCUAACAAUAAAGACAAUUCAGCCACAAAGCUUGAGAGCAUGUUCGGAUGCAGAGGCGGCAGCCUUCGGUGGCGGGAUAGCGCCAACGUUCUCAACUAUGACACGCAAAACGCGUGCUCCGUUGAAUGGAGUUUAUCAUG", "polymerase ribozyme fitness (log ratio)": "≤ -4.2"}, {"variant": "GGAUCUUCUCGAUCUAACAAUAAAGACAAAUCUGCCAUAAAGCUUGAGAGCAUCUUCGGAUGGAGAGGCGGCAGCCUUCGGUGUCGCGAUAGCGCCAACGUUCUCAACUAUGACACGCAAAACGCGUGCUCCGUUGAAUGGAGUUUAUCAUG", "polymerase ribozyme fitness (log ratio)": -0.36}, {"variant": "GGAUCUUCUCGAUCUAACAAUAAAGACAAAUCUGCCACAAAGCUUGAGAGCAUAUUCGGAUGCAGAGGCGGCAGCCUUCGGUGGCGCGAUAGCGCCAACGUUCUCAACUAUGACACGCAAAACGCGUGCUCCGUUGAAUGGGGUUUAUCAUG", "polymerase ribozyme fitness (log ratio)": -2.81}, {"variant": "GGAUCUUCUCGAUCUAACAAUAAAGACAAAUCUUCCACAAAGCUUGAGAGCAUGUUCGGAGGCAGAGGCGGCAGCCUUCGGUGGCGCGAUAGCGCCAACGUUCUCAAGUAUGACACGCAAAACGCGUGCUCCGUUGAAUAGAGUCUAUCAUG", "polymerase ribozyme fitness (log ratio)": -4.13}, {"variant": "GGAUCUUCUCGAUCUAACAAUAAAGACAAAUCUGCCACAAAGCUUGAGGGCAUCUUCGGAUGCAGAGGCGGCAGCCUUCGGUGUCGCGAUAGCGCCAACGUUCUCAACUAUGACACGCAAAACGCGUGCUCCGUUGAAUGGAGUGUAUCAUG", "polymerase ribozyme fitness (log ratio)": -2.57}, {"variant": "GGAUCUUCUCGAUCUAACAAUAAAGACACAUCUGCCACAAAGCUUGAGAGCAUCUUCGGAUGCAGAGGCGGCAGCCUUCGGUGGCGCGCUAGCGCCAACGUUCUCAACUAUGACACGCAAAACGCGUGCCCCGUUGAAUUAAGUUUAUCAUG", "polymerase ribozyme fitness (log ratio)": "≤ -4.2"}, {"variant": "GGAUCUUCUCGAUCUAACAAUAAAGCCAAAUCUGCCACAAAGCUUGAGAGCCUUUUCGGAUACAGAGACGGCAGCCUUCGGUCGCGCGAUAGCGCCAACGUUCUCAACUAUGACACGCAAAACGCGUGCUCCGUUGAAGGGAGUUUAUCAUG", "polymerase ribozyme fitness (log ratio)": "≤ -4.2"}, {"variant": "GGAUCUUCUCGAUCUAACAAUAAGGACAAAUCUGCCACAAAGCUUGAGAGCAUCUUCGGAAGCAGAGGCGGCAGCCUUCGUUGGCGCGAUAGCGCCAACGUUCUCAACUAUGACACGCAAAACGCGUGCUCCGUUGAAUGGAGUUUAUCAUG", "polymerase ribozyme fitness (log ratio)": "≤ -4.2"}]}]}
